Tests used:
Test in all cases: cell-based or functional assay
[1] = target: HIV-1 Env of pseudovirus 1012_11_TC21_3257 (HIV-1)
[2] = target: HIV-1 Env of pseudovirus 191955_A11 (HIV-1)
[3] = target: HIV-1 Env of pseudovirus 263-8 (HIV-1)
[4] = target: HIV-1 Env of pseudovirus 6240_08_TA5_4622 (HIV-1)
[5] = target: HIV-1 Env of pseudovirus 7030102001E5(Rev-) (HIV-1)
[6] = target: HIV-1 Env of pseudovirus 9004SS_A3_4 (HIV-1)
[7] = target: HIV-1 Env of pseudovirus 928-28 (HIV-1)
[8] = target: HIV-1 Env of pseudovirus CAAN5342.A2 (HIV-1)
[9] = target: HIV-1 Env of pseudovirus CNE21 (HIV-1)
[10] = target: HIV-1 Env of pseudovirus Ce0682_E4 (HIV-1)
[11] = target: HIV-1 Env of pseudovirus Ce1176_A3 (HIV-1)
[12] = target: HIV-1 Env of pseudovirus Ce2010_F5 (HIV-1)
[13] = target: HIV-1 Env of pseudovirus Ce2060_G9 (HIV-1)
[14] = target: HIV-1 Env of pseudovirus HIV-001428-2.42 (HIV-1)
[15] = target: HIV-1 Env of pseudovirus HIV-16055-2.3 (HIV-1)
[16] = target: HIV-1 Env of pseudovirus MS208.A1 (HIV-1)
[17] = target: HIV-1 Env of pseudovirus RHPA4259.7 (HIV-1)
[18] = target: HIV-1 Env of pseudovirus T250-4 (HIV-1)
[19] = target: HIV-1 Env of pseudovirus T257-31 (HIV-1)
[20] = target: HIV-1 Env of pseudovirus TRJO4551.58 (HIV-1)
[21] = target: HIV-1 Env of pseudovirus ZM109F.PB4 (HIV-1)
[22] = target: HIV-1 Env of pseudovirus ZM197M.PB7 (HIV-1)
[23] = target: HIV-1 Env of pseudovirus ZM53M.PB12 (HIV-1)

PG16 (antibody) showed an IC50, titer in TZM.bl cells [1] of 0.03 µg/mL, an IC80, titer in TZM.bl cells [1] of 0.219 µg/mL and an IC50, titer in TZM.bl cells [2] of 0.009 µg/mL. It also gave an IC80, titer in TZM.bl cells [2] of 0.042 µg/mL, an IC50, titer in TZM.bl cells [3] of 0.347 µg/mL and an IC80, titer in TZM.bl cells [3] of 4.97 µg/mL. The IC50, titer in TZM.bl cells [4] was over 50 µg/mL, the IC80, titer in TZM.bl cells [4] was over 50 µg/mL and the IC50, titer in TZM.bl cells [5] was over 50 µg/mL. The IC80, titer in TZM.bl cells [5] was over 50 µg/mL, the IC50, titer in TZM.bl cells [6] was 0.02 µg/mL and the IC80, titer in TZM.bl cells [6] was 0.111 µg/mL. The IC50, titer in TZM.bl cells [7] was 0.034 µg/mL, the IC80, titer in TZM.bl cells [7] was 0.237 µg/mL and the IC50, titer in TZM.bl cells [8] was 1.83 µg/mL. The IC80, titer in TZM.bl cells [8] was 33 µg/mL, the IC50, titer in TZM.bl cells [9] was 0.007 µg/mL and the IC80, titer in TZM.bl cells [9] was 0.026 µg/mL. The IC50, titer in TZM.bl cells [10] was 0.026 µg/mL, the IC80, titer in TZM.bl cells [10] was 0.202 µg/mL and the IC50, titer in TZM.bl cells [11] was 0.003 µg/mL. It also gave an IC80, titer in TZM.bl cells [11] of 0.011 µg/mL, an IC50, titer in TZM.bl cells [12] of over 50 µg/mL and an IC80, titer in TZM.bl cells [12] of over 50 µg/mL. The IC50, titer in TZM.bl cells [13] was 0.075 µg/mL, the IC80, titer in TZM.bl cells [13] was 1.71 µg/mL and the IC50, titer in TZM.bl cells [14] was 0.039 µg/mL. For the same substance, the IC80, titer in TZM.bl cells [14] was 0.25 µg/mL, the IC50, titer in TZM.bl cells [15] was 0.17 µg/mL and the IC80, titer in TZM.bl cells [15] was over 0.25 µg/mL. It also gave an IC50, titer in TZM.bl cells [16] of 0.002 µg/mL, an IC80, titer in TZM.bl cells [16] of 0.004 µg/mL and an IC50, titer in TZM.bl cells [17] of 0.375 µg/mL. For the same substance, the IC80, titer in TZM.bl cells [17] was 3.92 µg/mL, the IC50, titer in TZM.bl cells [18] was 0.002 µg/mL and the IC80, titer in TZM.bl cells [18] was 0.005 µg/mL. The IC50, titer in TZM.bl cells [19] was 0.007 µg/mL, the IC80, titer in TZM.bl cells [19] was 0.021 µg/mL and the IC50, titer in TZM.bl cells [20] was 1.01 µg/mL. For the same substance, the IC80, titer in TZM.bl cells [20] was 24.5 µg/mL, the IC50, titer in TZM.bl cells [21] was 7.03 µg/mL and the IC80, titer in TZM.bl cells [21] was over 50 µg/mL. It also gave an IC50, titer in TZM.bl cells [22] of 1.5 µg/mL, an IC80, titer in TZM.bl cells [22] of 22.8 µg/mL and an IC50, titer in TZM.bl cells [23] of 0.007 µg/mL. For the same substance, the IC80, titer in TZM.bl cells [23] was 0.051 µg/mL.

N49P9.1 (antibody) was tested, and the IC50 [1] was 0.382 µg/mL, the IC80 [1] was 1.45 µg/mL and the MPI [1] was 100. For the same substance, the IC50 [4] was 0.716 µg/mL, the IC80 [4] was 2.55 µg/mL and the MPI [4] was 100. The IC50 [5] was 0.635 µg/mL, the IC80 [5] was 2.02 µg/mL and the MPI [5] was 100. The IC50 [8] was 2.16 µg/mL, the IC80 [8] was 8 µg/mL and the MPI [8] was 99. For the same substance, the IC50 [9] was over 50 µg/mL, the IC80 [9] was over 50 µg/mL and the MPI [9] was 15. For the same substance, the IC50 [10] was 0.076 µg/mL, the IC80 [10] was 0.264 µg/mL and the MPI [10] was 100. The IC50 [11] was 0.44 µg/mL, the IC80 [11] was 0.998 µg/mL and the MPI [11] was 100. It also gave an IC50 [12] of 0.12 µg/mL, an IC80 [12] of 0.38 µg/mL and an MPI [12] of 100. The IC50 [13] was 0.781 µg/mL, the IC80 [13] was 3.54 µg/mL and the MPI [13] was 100. It also gave an IC50 [14] of 0.037 µg/mL, an IC80 [14] of 0.12 µg/mL and an MPI [14] of 99. The IC50 [15] was 0.102 µg/mL, the IC80 [15] was 0.362 µg/mL and the MPI [15] was 100. For the same substance, the IC50 [16] was 0.082 µg/mL, the IC80 [16] was 0.248 µg/mL and the MPI [16] was 100. For the same substance, the IC50 [17] was 0.021 µg/mL, the IC80 [17] was 0.066 µg/mL and the MPI [17] was 100. The IC50 [20] was 0.035 µg/mL, the IC80 [20] was 0.12 µg/mL and the MPI [20] was 100. It also gave an IC50 [21] of 0.116 µg/mL, an IC80 [21] of 0.497 µg/mL and an MPI [21] of 95. The IC50 [22] was 0.049 µg/mL, the IC80 [22] was 0.283 µg/mL and the MPI [22] was 100. It also gave an IC50 [23] of 0.447 µg/mL, an IC80 [23] of 1.29 µg/mL and an MPI [23] of 100.

Work on N49P19 (antibody) yielded an IC50 [1] of 0.204 µg/mL, an IC80 [1] of 0.895 µg/mL and an MPI [1] of 100. The IC50 [4] was 2.1 µg/mL, the IC80 [4] was 7.52 µg/mL and the MPI [4] was 100. The IC50 [5] was 0.95 µg/mL, the IC80 [5] was 4.7 µg/mL and the MPI [5] was 100. It also gave an IC50 [8] of 1.24 µg/mL, an IC80 [8] of 4.4 µg/mL and an MPI [8] of 100. The IC50 [9] was over 50 µg/mL, the IC80 [9] was over 50 µg/mL and the MPI [9] was 21. It also gave an IC50 [10] of 0.607 µg/mL, an IC80 [10] of 2.32 µg/mL and an MPI [10] of 98. For the same substance, the IC50 [11] was 1.57 µg/mL, the IC80 [11] was 9.84 µg/mL and the MPI [11] was 99. The IC50 [12] was 7.66 µg/mL, the IC80 [12] was 45.4 µg/mL and the MPI [12] was 82. The IC50 [13] was 1.06 µg/mL, the IC80 [13] was 5.62 µg/mL and the MPI [13] was 98. The IC50 [14] was over 50 µg/mL, the IC80 [14] was over 50 µg/mL and the MPI [14] was 44. The IC50 [15] was over 50 µg/mL, the IC80 [15] was over 50 µg/mL and the MPI [15] was 30. The IC50 [16] was 0.501 µg/mL, the IC80 [16] was 1.99 µg/mL and the MPI [16] was 99. For the same substance, the IC50 [17] was over 50 µg/mL, the IC80 [17] was over 50 µg/mL and the MPI [17] was 42. It also gave an IC50 [20] of 1.23 µg/mL, an IC80 [20] of 5.4 µg/mL and an MPI [20] of 99. The IC50 [21] was 0.282 µg/mL, the IC80 [21] was 2.66 µg/mL and the MPI [21] was 92. For the same substance, the IC50 [22] was 38.4 µg/mL, the IC80 [22] was over 50 µg/mL and the MPI [22] was 56. The IC50 [23] was 1.19 µg/mL, the IC80 [23] was 4.14 µg/mL and the MPI [23] was 100.

Reference: patent US20230002480A1
